Experimental data reported in paper PMC6889914, “Identifying dynamic, partially occupied residues using anomalous scattering” (Acta Crystallographica. Section D, Structural Biology, 2019).
Where no end group is shown, it is not given here. [ ]: non-standard residue; d: D form. Phe(4-I) = N[C@@H](Cc1ccc(I)cc1)C(=O)O

T1: Spy H96L (UniProt P77754 24-161, H96L)
T1 construct: also called Super Spy chaperone mutant Spy H96L
T1 sequence (looked up): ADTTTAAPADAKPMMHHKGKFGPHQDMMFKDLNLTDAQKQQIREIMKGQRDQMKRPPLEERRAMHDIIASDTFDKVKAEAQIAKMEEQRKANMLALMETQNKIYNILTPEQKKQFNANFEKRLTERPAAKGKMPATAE

T2: Spy H96L (UniProt P77754 24-161, H96L)
T2 sequence: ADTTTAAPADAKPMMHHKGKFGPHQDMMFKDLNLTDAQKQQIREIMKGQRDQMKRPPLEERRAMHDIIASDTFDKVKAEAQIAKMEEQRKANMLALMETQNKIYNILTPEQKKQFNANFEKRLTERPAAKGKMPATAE


Tests used:
Spy H96L [1] = biological target: T1, Spy H96L; assay: ITC; MicroCal iTC200; titration of Spy H96L (1.25 mM) with the Im7 6–26 peptides (0.11 µM wild type, 0.055 µM pI-Phe peptides); 10°C; 40 mM HEPES–NaOH pH 7.5, 100 mM NaCl; 2 µl injections at 180 s; one-site model; conditions: both partners purified
Spy H96L [2] = biological target: T2, Spy H96L; assay: ITC

| Binder | binding result (Spy H96L [1]) | Ka (Spy H96L [2]) | Kd (Spy H96L [1]) |
| --- | --- | --- | --- |
| SISDYTEAEFVQL[Phe(4-I)]KEIEKEN [Im7 6–26 peptide L19pI-Phe] | binds | 219000 M⁻¹ |  |
| SISDYTEAEFVQLLKEIEKEN (also called wild-type Im7 6–26 peptide; Im7 peptide) [Im7 6–26 peptide (wild type)] |  | 102000 M⁻¹ | 7.8 ± 0.6 µM |
| SISDYTEAEFVQLLFEIEKEN (also called L20pI-Phe (as misprinted in places)) [Im7 6–26 peptide K20pI-Phe] | binds | 218000 M⁻¹ |  |
| SISDYTEAEFVQ[Phe(4-I)]LKEIEKEN [Im7 6–26 peptide L18pI-Phe] | binds | 1.59e+06 M⁻¹ |  |
